Patent US20040213795A1 (Pfizer, published 2004)

What was measured:
[1] = molecular target: T1, Human PD-1 fusion protein (human, UniProt Q15116 25-167); test: scFv; inhibition of biotinylated human PD-L1 fusion binding to plate-bound human PD-1 fusion
T1 construct: also called Soluble PD-1 fusion protein; human PD-1/IgG chimera; not shown: fusion partner, called IgG in 'PD-1/IgG chimera'
Experimental: ScFv production was induced by addition of 1 mM IPTG to exponentially growing cultures and incubation overnight at 30° C. Crude scFv-containing periplasmic extracts were obtained by subjecting the bacterial pellets from the overnight induction to osmotic shock. Pellets were resuspended in 20% (w/v) sucrose, 50 mM Tris-HCl, pH 7.5, 1 mM EDTA and cooled on ice for 30 minutes. Cellular debris was removed by centrifugation, and the scFv was purified by chromatography and buffer-exchanged into PBS. Purified scFv's (PD1-17, PD1-28, PD1-33, and PD1-35) were tested for the ability to inhibit the binding of biotinylated human PD-L1 fusion protein to human PD-1 fusion protein immobilized on plastic in a 96 well microtiter plate assay. Binding of biotinylated PD-L1 fusion protein was detected with AMDEX-alkaline phosphatase, and the signal generated was measured by reading the absorbance at 405 nm using a microtiter plate reader. Data was expressed as a percentage of the total binding and a titration of scFv concentrations was tested to establish clone potency as calculated IC₅₀ values.

[2] = molecular target: T1, Human PD-1 fusion protein; test: IgG; inhibition of biotinylated human PD-L1 fusion binding to plate-bound human PD-1 fusion
Experimental: Crude scFv-containing periplasmic extracts were obtained by subjecting the bacterial pellets from the overnight induction to osmotic shock. Pellets were resuspended in 20% (w/v) sucrose, 50 mM Tris-HCl, pH 7.5, 1 mM EDTA and cooled on ice for 30 minutes. Cellular debris was removed by centrifugation, and the scFv was purified by chromatography and buffer-exchanged into PBS. […] Binding of biotinylated PD-L1 fusion protein was detected with AMDEX-alkaline phosphatase, and the signal generated was measured by reading the absorbance at 405 nm using a microtiter plate reader. […]

Murine PD-1 on cells [3] = molecular target: T2, Murine PD-1 on cells (mouse, UniProt Q02242 25-288); test: scFv; inhibition of biotinylated murine PD-L1 fusion binding to cells expressing murine PD-1
T2 construct: also called Cells expressing murine PD-1
T2 sequence: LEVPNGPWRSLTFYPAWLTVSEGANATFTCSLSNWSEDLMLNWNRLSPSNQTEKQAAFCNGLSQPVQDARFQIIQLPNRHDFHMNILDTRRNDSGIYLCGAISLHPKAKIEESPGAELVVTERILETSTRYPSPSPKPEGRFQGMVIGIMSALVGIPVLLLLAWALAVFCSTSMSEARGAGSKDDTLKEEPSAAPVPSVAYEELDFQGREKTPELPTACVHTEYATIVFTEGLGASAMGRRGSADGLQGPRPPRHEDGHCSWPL
Experimental: (§1) PD1-F2 scFv was produced and purified as described above. Cells expressing murine PD-1 were added at 10⁵ cells/well in a final volume of 100 μl to a poly-D-lysine-coated 96 well microtiter plate. Cells were centrifuged and washed twice in PBS, then blocked with 300 μl […] in PBS for 1 hour at room temperature. Blocked cells were washed three times in PBST, prior to addition of 25 μl/well of assay buffer (0.05% BSA, 0.05% Tween 20 in Dulbecco's PBS) or sample, followed by 25 μl of biotinylated murine PD-L1 fusion protein at 300 ng/ml. Binding of biotinylated PD-L1 fusion protein was detected with Amdex alkaline phosphatase and signals read as described above.

[4] = molecular target: T3, Murine PD-1 fusion protein (mouse, UniProt Q02242 25-167); test: SPR (BIAcore 3000), murine PD-1 fusion immobilized on CM5 chip, antibody 7.81 to 125 nM in flow
T3 construct: also called mouse PD-1 fusion protein; not shown: fusion partner not described
T3 sequence: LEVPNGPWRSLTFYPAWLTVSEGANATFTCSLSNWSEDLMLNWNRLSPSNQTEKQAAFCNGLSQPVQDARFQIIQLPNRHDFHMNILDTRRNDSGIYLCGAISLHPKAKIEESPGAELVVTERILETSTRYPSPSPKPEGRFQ
Experimental: The binding affinity of the anti-mouse PD1 antibody PD1-F2 was determined with a Surface Plasmon Resonance (SPR) system (BIAcore 3000) (Biacore, Piscataway, N.J.) using murine PD-1 fusion immobilized on a CM5 sensor chip. The concentration of PD1-F2 in the flow cell ranged from 7.81 to 125 nM, while the concentration of the anti-mouse PD1 antibody J43 (eBioscience, San Diego, Calif.) ranged from 25 nM to 500 nM.

Murine PD-1 on cells [5] = molecular target: T2, Murine PD-1 on cells; test: IgG; inhibition of biotinylated murine PD-L1 fusion binding to cells expressing murine PD-1
Experimental: as §1, with “Cells” for “PD1-F2 scFv was produced and purified as described above. Cells”

T1 sequence (Q15116 other isoform, or with tags, fused parts or gaps): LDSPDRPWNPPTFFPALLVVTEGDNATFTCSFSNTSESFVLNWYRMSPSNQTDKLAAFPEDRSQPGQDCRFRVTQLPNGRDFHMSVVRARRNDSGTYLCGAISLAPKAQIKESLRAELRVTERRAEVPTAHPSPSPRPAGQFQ

B1: PD1-33 scFv (scFv, V domains shown)
VH: QVQLVQSGAEVKKPGASVRVSCKASGYTLTSYYIHWVRQAPGQGLEWMGIINPRGATISYAQKFQGRVTMTRDTSTSTVYMELRNLKSEDTALYYCATAGIYGFDFDYWGRGTLVTVSS
VL: QSALTQPASVSGSPGQSITISCTGTSNDVGGYNYVSWYQHHPGKAPKLIIYDVTNRPSGVSDRFSGSKSGNTASLTISGLLAEDEGDYYCSSYTIVTNFEVLFGGGTKLTV
B1 showed an IC50 [1] of 74 nM.

B2: PD1-33 IgG (antibody, V domains shown)
VH: B1 VH
VL: B1 VL
Binder B2 has an IC50 [2] of 1.8 nM.

B3: PD1-F2 scFv (scFv, V domains shown)
VH: EVQLVQSGGGVVQPGRSLRLSCAASGFTFSSYWMSWVRQAPGKGLEWVSAISGSGGSTYYADSVKGRFTISRDNSKNTLYLQMNSLRAEDTAVYYCAKENWGSYFDLWGQGTTVTVSS
VL: DIVMTQSPSTLSASVGDRVTITCRASQGISSWLAWYQQKPGRAPKVLIYKASTLESGVPSRFSGSGSGTDFTLTISSLQPEDFATYYCQQSYSTPWTFGQGTKLEIK
B3 was tested, and the IC50 (Murine PD-1 on cells [3]) was 28 nM.

B4: PD1-F2 IgG (antibody, V domains shown)
VH: B3 VH
VL: DIVMTQSPSTLSASVGDRVTITCRASQGISSWLAWYQQKPGRAPKVLIYKASTLESGVPSRFSGSGSGTDFTLTISSLQPEDFATYYCQQSYSTPWTFGQGTKLEIKR
notes: also called anti-mouse PD1 antibody PD1-F2
In the case of B4, the Ka [4] is reported as 1.5e+08 M⁻¹, the Kd [4] is reported as 6.7 nM and the IC50 (Murine PD-1 on cells [5]) is reported as 1 nM.

B5: PD1-28 IgG (antibody, V domains shown)
VH: EVQLVQSGAEVKKPGASVKVSCKASGYRFTSYGISWVRQAPGQGLEWMGWISAYNGNTNYAQKLQGRVTMTTDTSTNTAYMELRSLRSDDTAVYYCARDADYSSGSGYWGQGTLVTVSS
VL: SYELTQPPSVSVSPGQTARITCSGDALPKQYAYWYQQKPGQAPVMVIYKDTERPSGIPERFSGSSSGTKVTLTISGVQAEDEADYYCQSADNSITYRVFGGGTKVTVL
With B5 the IC50 [2] was 1.4 nM.

B6: PD1-28 scFv (scFv, V domains shown)
VH: B5 VH
VL: B5 VL
notes: not shown: scFv linker, order of the domains and vector tags (pCANTAB6 phagemid library)
B6 gave an IC50 [1] of 560 nM.

B7: PD1-17 scFv (scFv, V domains shown)
VH: QVQLQESGPGVVKPSGTLSLTCAISGGSIGSGGSIRSTRWWSWVRQSPGKGLEWIGEIYHSGSTNYNPSLKSRVTISLDKSRNHFSLRLNSVTAADTAVYYCARQDYGDSGDWYFDLWGKGTMVTVSS
VL: NFMLTQPHSVSESPGKTVTISCTRSSGSIASNSVQWYQQRPGSSPTTVIYEDNQRPSGVPDRFSGSIDSSSNSASLTVSGLKTEDEADYYCQSSDSSAVVFGSGTKLTVL
notes: as for B6
B7 showed an IC50 [1] of 726 nM.

B8: PD1-17 IgG (antibody, V domains shown)
VH: B7 VH
VL: B7 VL
notes: also called anti-PD-1 antibody PD1-17
With B8 the IC50 [2] was 2.5 nM.

B9: PD1-35 IgG (antibody, V domains shown)
VH: QVQLQESGPGLVKPSQTLSLTCTVSGGSISSGAYYWSWIRQHPGKGLEWIGYIYYNGNTYYNPSLRSLVTISVDASKNQFSLKLSSVTAADTAVYYCARASDYVWGGYRYMDAFDIWGRGTLITVSS
VL: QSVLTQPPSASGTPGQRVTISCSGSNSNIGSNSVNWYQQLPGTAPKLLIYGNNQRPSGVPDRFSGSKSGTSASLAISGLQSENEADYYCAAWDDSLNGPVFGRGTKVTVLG
notes: also called PD-35
Work on B9 yielded an IC50 [2] of 2.3 nM.
